Measurements taken from publication PMC10321576, “Cyclic peptides target the aromatic cage of a PHD-finger reader domain to modulate epigenetic protein function†” (Chemical Science, 2023).
One block for each binder: values may come before it. Bridge positions count the residues as written; N and C are the ends. Square brackets hold non-standard residues; d marks the D form. Ends that are not written are not given here. Lys(Me3) = C[N+](C)(C)CCCC[C@H](N)C(=O)O

Legend:
KDM7B PHD-finger [1] = biological target: T1, KDM7B PHD-finger (UniProt Q9UPP1-2 1-447); test: BLI; association and dissociation of the cyclic peptide (2-fold serial dilution) on the protein; curve fittings with a 1:1 binding model; conditions: both partners purified
KDM7B PHD-finger [2] = biological target: T1, KDM7B PHD-finger; test: AlphaScreen or HTRF; proximity assay of His-tagged protein and biotinylated H3(1-21)K4me3; displacement by titrated unlabelled peptide; conditions: both partners purified
KDM7B PHD-finger [3] = biological target: T1, KDM7B PHD-finger; test: BLI + AlphaScreen or HTRF; SAR of OC9 variants on KDM7B PHD-finger by affinity (BLI) and displacement (AS) assays; the sentence does not tell which gave the result; conditions: both partners purified
[4] = biological target: T2, KDM7B (PHF8, JHDM1F) dual domain (PHD-JmjC) (UniProt Q9UPP1-2 1-447); test: BLI; association and dissociation of the cyclic peptide (2-fold serial dilution) on the protein; curve fittings with a 1:1 binding model; conditions: both partners purified
T2 construct: KDM7B (PHF8, JHDM1F), PHD-finger in tandem with the JmjC demethylase domain; methods are not in the main text; also called KDM7B dual domain

[5] = biological target: T2, KDM7B (PHF8, JHDM1F) dual domain …; test: cell-based or functional assay
[6] = biological target: T2, KDM7B (PHF8, JHDM1F) dual domain …; test: ITC; binding curves fitted with a 1:1 binding model; conditions: both partners purified
KDM7B PHD-finger [7] = biological target: T1, KDM7B PHD-finger; test: as above; conditions: both partners purified
KDM7B PHD-finger [8] = biological target: T1, KDM7B PHD-finger; test: NMR titration; 1H-15N HSQC and 1H-NMR of isotopically labelled KDM7B PHD-finger, apo or with peptide; conditions: both partners purified

T1 sequence (Q9UPP1 37-483): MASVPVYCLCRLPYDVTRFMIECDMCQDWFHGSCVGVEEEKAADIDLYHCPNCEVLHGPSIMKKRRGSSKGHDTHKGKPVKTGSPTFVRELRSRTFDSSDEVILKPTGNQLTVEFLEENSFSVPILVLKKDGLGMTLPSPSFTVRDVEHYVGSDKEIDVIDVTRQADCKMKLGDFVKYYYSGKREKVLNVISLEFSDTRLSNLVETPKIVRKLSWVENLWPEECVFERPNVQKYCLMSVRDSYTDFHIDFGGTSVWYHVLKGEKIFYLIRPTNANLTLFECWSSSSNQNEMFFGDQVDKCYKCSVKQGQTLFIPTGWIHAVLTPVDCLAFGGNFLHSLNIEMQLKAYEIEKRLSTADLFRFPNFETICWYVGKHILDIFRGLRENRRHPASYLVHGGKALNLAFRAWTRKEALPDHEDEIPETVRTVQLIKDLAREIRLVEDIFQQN
T2 sequence (Q9UPP1 37-483): as above

B3: OC9, de novo cyclic peptide from mRNA display (peptide)
chain: {CH2CO}-YYLTHPYPSVFRTC
modifications: thioether N-14
Kd [4]: 6 nM
dissociative half-life t1/2 [4]: 2.8 min
Kd (KDM7B PHD-finger [1]): 4 nM
dissociative half-life t1/2 (KDM7B PHD-finger [1]): 8.1 min
IC50 (KDM7B PHD-finger [2]): 32 nM
IC50 of inhibition of KDM7B demethylation of H3(1–21)K4me3K9me2, MALDI-TOF MS based assay [5]: 1190 nM
IC50 of inhibition of KDM7B demethylation of H3(1–21)K9me2, MALDI-TOF MS based assay [5]: 510 nM
Kd [6]: 11 nM
Kd (KDM7B PHD-finger [7]): 12 nM

B4: OC9 V10DV (peptide)
chain: YYLTHPYPS[dV]FRTC
modifications: ends and bridges not checked
Kd (KDM7B PHD-finger [1]): > 10000 nM
Kd (KDM7B PHD-finger [8]): 503000 ± 1000 nM

Other lines, results leading:

Kd (KDM7B PHD-finger [1]): 533 nM
IC50 (KDM7B PHD-finger [2]): 316 nM
B1: OC9 V10Kme3 (peptide)
chain: YYLTHPYPS[Lys(Me3)]FRTC
modifications: ends and bridges not checked

fold higher affinity against the cis-fluoro variant at P6 (KDM7B PHD-finger [3]): > 10 fold
B2: OC9 with trans-4-fluoroproline at P6 (peptide)
chain: YYLTH[trans‑4‑fluoroproline]YPSVFRTC
modifications: ends and bridges not checked
